Assay results published in FireProtDB (doi:10.1021/bi0362267).

B1: Ribonuclease, P00648 (parent)
chain: MMKMEGIALKKRLSWISVCLLVLVSAAGMLFSTAAKTETSSHKAHTEAQVINTFDGVADYLQTYHKLPDNYITKSEAQALGWVASKGNLADVAPGKSIGGDIFSNREGKLPGKSGRTWREADINYTSGFRNSDRILYSSDWLIYKTTDHYQTFTKIR

Variants of: B1
Conditions: Bacillus amyloliquefaciens, pH 6.3, Thermal, CD, Mes 50 mM, structure 1BNI, whole UniProt chain shown; for ddG of mutation (higher = less stable) / unfolding free energy: 25 °C

Variant	ddG of mutation (higher = less stable) [kcal/mol]	unfolding free energy [kcal/mol]	Tm [°C]	change of melting temperature, mutant - wild type (higher = more stable) [°C]	unfolding enthalpy (van 't Hoff) [kcal/mol]
Y144G	6.6	2.9	34.4	-17.9	103
Y64G	–	–	42	-10.3	117
D59G	1.2	8.3	50	-2.3	129
D59A	-1.1	10.6	51.2	-1	153
L142G	4.7	4.8	43.1	-9.1	98.5
Y60G	6.4	3.1	36.6	-15.6	92.7
I102G	3.1	6.4	–	–	–
T147G	2.8	6.7	–	–	–
Q62A	0.2	9.3	51.4	-0.9	137
Q62G	1.6	7.9	50.2	-2	123
L136G	7	2.5	43.5	-8.7	58.5
I143G	–	–	36.5	-15.7	110
I135G	7.4	2.1	31.4	-20.8	100
R119G	2.5	7	46.5	-5.7	123
E120G	–	–	39.5	-12.7	101
